B1: recombinant fructose-1,6-bisphosphate aldolase 3 from Chlamydomonas reinhardtii (CrFBA3) (enzyme, UniProt Q42690 28-377, looked up)
chain: GKYDEELIKTAGTVASKGRGILAMDESNATCGKRLDSIGVENTEENRRAYRELLVTAPGLGQYISGAILFEETLYQSTASGKKFVDVMKEQNIVPGIKVDKGLVPLSNTNGESWCMGLDGLDKRCAEYYKAGARFAKWRSVVSIPHGPSIIAARDCAYGLARYAAIAQNAGLVPIVEPEVLLDGEHDIDRCLEVQEAIWAETFKYMADNKVMFEGILLKPAMVTPGADCKNKAGPAKVAEYTLKMLRRRVPPAVPGIMFLSGGQSELESTLNLNAMNQSPNPWHVSFSYARALQNTVLKTWQGKPENVQAAQAALLKRAKANSDAQQGKYDATTEGKEAAQGMYEKGYVY

How the values were obtained:
[1] = biological target: FBA3 in soluble extracts of Chlamydomonas cultures (Chlamydomonas reinhardtii (endogenous in Chlamydomonas cultures)); assay: SEC
SEC = biological target: the molecule itself; assay: SEC

Molecule	stoichiometry N [1]	stoichiometry N (SEC)
FBA3 in soluble extracts of Chlamydomonas cultures (enzyme)	4	
B1		4
